Reference: PMC6010752, “Development of GMP‐1 a molecular chaperone network modulator protecting mitochondrial function and its assessment in fly and mice models of Alzheimer's disease” (Journal of Cellular and Molecular Medicine, 2018)
Ends that are not written are not given here.

T1: Tom34 (Homo sapiens, UniProt Q15785)
T1 construct: gene TOMM34; full-length (Gst-tag-free)
T1 sequence (Q15785 1-309): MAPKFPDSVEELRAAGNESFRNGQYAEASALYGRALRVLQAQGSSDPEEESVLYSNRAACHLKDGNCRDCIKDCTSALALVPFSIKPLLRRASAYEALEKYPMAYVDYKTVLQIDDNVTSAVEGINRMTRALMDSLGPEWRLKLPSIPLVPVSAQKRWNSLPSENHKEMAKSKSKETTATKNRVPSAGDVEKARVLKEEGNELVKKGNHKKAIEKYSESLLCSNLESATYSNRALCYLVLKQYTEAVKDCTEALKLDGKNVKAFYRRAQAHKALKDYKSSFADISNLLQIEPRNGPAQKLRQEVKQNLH

T2: FKBP51 (Homo sapiens, UniProt Q13451)
T2 construct: gene FKBP5; full-length (Gst-tag-free)
T2 sequence (Q13451 1-457): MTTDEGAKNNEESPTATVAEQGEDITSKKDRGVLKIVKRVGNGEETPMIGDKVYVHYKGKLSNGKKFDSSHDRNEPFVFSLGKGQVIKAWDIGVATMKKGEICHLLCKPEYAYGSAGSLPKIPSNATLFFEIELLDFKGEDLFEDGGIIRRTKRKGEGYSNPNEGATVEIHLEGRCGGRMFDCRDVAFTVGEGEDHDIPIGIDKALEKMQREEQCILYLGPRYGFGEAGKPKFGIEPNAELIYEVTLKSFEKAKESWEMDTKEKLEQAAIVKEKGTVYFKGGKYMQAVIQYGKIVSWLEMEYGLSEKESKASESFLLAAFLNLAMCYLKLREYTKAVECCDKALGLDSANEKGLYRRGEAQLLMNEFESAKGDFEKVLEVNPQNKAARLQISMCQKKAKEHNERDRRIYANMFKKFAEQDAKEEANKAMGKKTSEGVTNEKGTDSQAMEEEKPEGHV

T3: Tom70 (Homo sapiens, UniProt O94826)
T3 construct: gene TOMM70; cytoplasm-exposed domain of Tom70, amino acids 65-608 (Gst-tag-free)
T3 sequence (O94826 65-608): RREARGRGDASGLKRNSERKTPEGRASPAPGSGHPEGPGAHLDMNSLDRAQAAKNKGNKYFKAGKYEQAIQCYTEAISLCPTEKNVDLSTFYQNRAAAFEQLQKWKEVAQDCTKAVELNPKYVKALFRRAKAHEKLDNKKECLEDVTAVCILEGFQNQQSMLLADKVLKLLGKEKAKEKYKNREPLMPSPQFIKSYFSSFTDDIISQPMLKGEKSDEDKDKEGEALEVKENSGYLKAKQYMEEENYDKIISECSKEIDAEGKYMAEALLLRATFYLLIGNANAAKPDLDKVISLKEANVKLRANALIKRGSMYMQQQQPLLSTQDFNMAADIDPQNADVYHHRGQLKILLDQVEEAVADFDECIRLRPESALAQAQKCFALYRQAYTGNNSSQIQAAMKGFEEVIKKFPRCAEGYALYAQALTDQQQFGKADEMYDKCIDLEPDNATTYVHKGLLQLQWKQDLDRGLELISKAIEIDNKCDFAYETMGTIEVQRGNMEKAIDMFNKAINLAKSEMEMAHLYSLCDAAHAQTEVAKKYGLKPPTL

T4: Tom70, cytoplasm‐exposed domain, amino acids 65‐608 (human, UniProt O94826 65-608)
T4 construct: Tom70, human, mitochondrial import receptor, cytoplasm‐exposed domain, amino acids 65‐608; Cloned into a pGEX6 vector; cDNA from the IMAGE consortium; also called human Tom70 protein; source: E. coli BL21, purified (Gst‐trap 4B), Gst removed with PreScission protease
T4 sequence (looked up): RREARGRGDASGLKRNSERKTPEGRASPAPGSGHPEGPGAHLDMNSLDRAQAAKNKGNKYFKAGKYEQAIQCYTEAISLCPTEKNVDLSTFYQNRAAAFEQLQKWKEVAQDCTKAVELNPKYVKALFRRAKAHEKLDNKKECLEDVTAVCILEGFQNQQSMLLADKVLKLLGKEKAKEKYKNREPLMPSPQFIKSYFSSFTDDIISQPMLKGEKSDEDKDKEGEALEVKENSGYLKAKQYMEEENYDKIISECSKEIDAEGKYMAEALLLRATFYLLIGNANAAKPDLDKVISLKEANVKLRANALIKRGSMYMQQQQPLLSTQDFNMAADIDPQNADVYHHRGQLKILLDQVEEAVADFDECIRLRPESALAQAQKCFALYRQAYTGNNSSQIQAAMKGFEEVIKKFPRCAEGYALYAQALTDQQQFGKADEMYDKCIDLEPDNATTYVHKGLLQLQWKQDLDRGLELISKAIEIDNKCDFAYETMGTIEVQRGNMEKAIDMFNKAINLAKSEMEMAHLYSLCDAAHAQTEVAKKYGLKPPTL

T5: PP5 (human, UniProt P53041 1-499)
T5 construct: PP5, human TPR protein, full length; Cloned into a pGEX6 vector; cDNA from the IMAGE consortium; source: E. coli BL21, purified (Gst‐trap 4B), Gst removed with PreScission protease
T5 sequence (looked up): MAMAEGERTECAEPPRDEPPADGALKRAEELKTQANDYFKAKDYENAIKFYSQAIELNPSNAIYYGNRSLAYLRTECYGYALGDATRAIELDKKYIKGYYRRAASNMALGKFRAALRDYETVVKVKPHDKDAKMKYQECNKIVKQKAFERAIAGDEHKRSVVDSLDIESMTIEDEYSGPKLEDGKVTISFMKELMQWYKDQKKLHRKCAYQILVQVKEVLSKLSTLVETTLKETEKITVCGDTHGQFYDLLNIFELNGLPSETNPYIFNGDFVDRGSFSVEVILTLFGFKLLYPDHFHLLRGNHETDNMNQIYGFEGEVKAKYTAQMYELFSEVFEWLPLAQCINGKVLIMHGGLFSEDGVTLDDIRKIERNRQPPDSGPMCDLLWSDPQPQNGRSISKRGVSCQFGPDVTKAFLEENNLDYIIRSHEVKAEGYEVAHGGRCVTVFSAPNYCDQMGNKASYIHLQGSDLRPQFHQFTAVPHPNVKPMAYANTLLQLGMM

T6: Tom34 (human, UniProt Q15785 1-309)
T6 construct: Tom34, human TPR protein, full length; Cloned into a pGEX6 vector; cDNA from the IMAGE consortium; source: E. coli BL21, purified (Gst‐trap 4B), Gst removed with PreScission protease
T6 sequence (looked up): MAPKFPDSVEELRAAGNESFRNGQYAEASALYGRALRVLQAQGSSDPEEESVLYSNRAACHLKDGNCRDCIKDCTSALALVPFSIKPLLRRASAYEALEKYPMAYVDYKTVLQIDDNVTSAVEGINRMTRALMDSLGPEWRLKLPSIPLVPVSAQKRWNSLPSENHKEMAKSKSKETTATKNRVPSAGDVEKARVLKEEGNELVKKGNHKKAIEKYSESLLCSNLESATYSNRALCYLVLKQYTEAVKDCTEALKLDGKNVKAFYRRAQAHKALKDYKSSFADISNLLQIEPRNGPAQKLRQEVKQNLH

T7: FKBP51 (human, UniProt Q13451 1-457)
T7 construct: FKBP51, human TPR protein, full length; Cloned into a pGEX6 vector; cDNA from the IMAGE consortium; source: E. coli BL21, purified (Gst‐trap 4B), Gst removed with PreScission protease
T7 sequence (looked up): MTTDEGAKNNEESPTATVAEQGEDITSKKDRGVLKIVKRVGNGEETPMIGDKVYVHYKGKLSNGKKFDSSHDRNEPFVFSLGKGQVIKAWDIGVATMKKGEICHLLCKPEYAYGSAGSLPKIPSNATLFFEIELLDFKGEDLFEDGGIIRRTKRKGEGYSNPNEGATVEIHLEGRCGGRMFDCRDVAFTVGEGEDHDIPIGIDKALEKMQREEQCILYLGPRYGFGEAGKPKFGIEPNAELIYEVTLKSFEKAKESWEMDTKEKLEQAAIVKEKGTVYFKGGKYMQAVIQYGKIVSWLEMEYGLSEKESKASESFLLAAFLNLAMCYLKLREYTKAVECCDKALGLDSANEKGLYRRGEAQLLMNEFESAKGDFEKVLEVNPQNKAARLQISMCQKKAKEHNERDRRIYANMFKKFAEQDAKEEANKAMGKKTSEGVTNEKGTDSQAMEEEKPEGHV


Experiments:
Tom34 [1] = biological target: T1, Tom34; assay: dot-blot competition of Hsp90 C-terminal peptide-HRP (C90-HRP) with purified protein; format: binding
FKBP51 [2] = biological target: T2, FKBP51; assay: as above; format: binding
Tom70 = biological target: T3, Tom70; assay: as above; format: binding
[3] = biological target: T4, Tom70, cytoplasm‐exposed domain, amino …; assay: far-Western, overlay or dot blot; Gst‐tag‐free proteins applied to nitrocellulose membrane, blocked with 3% BSA in TBS‐T; C90‐HRP (1 × 500 dilution) incubated for 1 hour; ECL signal; with DMSO or increasing concentrations of the compound GMP‐1; conditions: both partners purified
PP5 = biological target: T5, PP5; assay: as above; conditions: both partners purified
Tom34 [4] = biological target: T6, Tom34; assay: as above; conditions: both partners purified
FKBP51 [5] = biological target: T7, FKBP51; assay: as above; conditions: both partners purified

IC50 (Tom34 [1]) | IC50 (FKBP51 [2]) | IC50 (Tom70) | binding result [3] | binding result (PP5) | binding result (Tom34 [4]) | binding result (FKBP51 [5]) | Molecule
180 µM | 150 µM | 45 µM | – | – | – | – | COCc1cc(O)n2c(n1)nc1ccccc12 [GMP-1, 2‐(methoxymethyl)pyrimido[1,2‐a]benzimidazol‐4‐ol]
– | – | – | binds | binds | binds | binds | HHHHHHDDTSRMEEVD-OH (also: coupled to horse-radish peroxidase (HRP), 10 amino acids of the C‐terminus of human Hsp90 alpha; also called Hsp90‐derived peptide; Hsp90 peptide conjugated to HRP; source: synthetic peptide (GL Biochem, Shanghai), coupled to HRP with the Lightning‐link HRP labeling kit; not shown: His6, N-terminal, kept)
